# According to US8067187 (CROSSBETA BIOSCIENCES B V, dated 2011):
# T1: human factor XII from plasma (Calbiochem) (human, UniProt P00748 20-615)
# T1 construct: also called FXII
# T1 sequence (looked up): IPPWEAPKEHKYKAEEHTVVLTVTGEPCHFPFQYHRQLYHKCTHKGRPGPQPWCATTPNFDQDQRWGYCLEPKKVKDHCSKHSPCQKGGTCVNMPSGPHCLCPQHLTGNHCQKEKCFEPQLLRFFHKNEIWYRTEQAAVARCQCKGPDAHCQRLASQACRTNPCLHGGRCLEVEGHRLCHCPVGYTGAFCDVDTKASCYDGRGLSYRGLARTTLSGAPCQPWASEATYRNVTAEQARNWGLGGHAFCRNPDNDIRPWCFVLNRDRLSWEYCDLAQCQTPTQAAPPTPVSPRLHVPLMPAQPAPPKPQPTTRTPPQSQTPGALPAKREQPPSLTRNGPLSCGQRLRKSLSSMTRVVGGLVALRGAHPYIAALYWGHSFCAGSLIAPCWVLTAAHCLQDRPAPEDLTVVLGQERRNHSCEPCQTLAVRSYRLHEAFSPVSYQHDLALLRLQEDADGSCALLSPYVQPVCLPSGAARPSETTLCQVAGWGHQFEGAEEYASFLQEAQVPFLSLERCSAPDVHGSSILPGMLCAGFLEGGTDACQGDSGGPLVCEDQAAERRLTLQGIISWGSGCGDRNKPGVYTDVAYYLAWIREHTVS
# Columns and labels:
# [1] = biological target: T2, tissue-type plasminogen activator (tPA, Actilyse, Boehringer-Ingelheim) (human, UniProt P00750 36-562); assay: tPA binding (data not shown)
# T2 construct: Commercial product; also called recombinant human tPA
# [2] = biological target: T2, tissue-type plasminogen activator (tPA, …); assay: ELISA, immobilized tPA overlaid with a concentration series of β2GPI
# [3] = biological target: T1, human factor XII from plasma …; assay: ELISA, immobilized factor XII overlaid with a concentration series of β2GPI
# [4] = biological target: T3, anti-β2GPI auto-antibodies purified from plasma of patients with the Anti-phospholipid syndrome; assay: competition ELISA: patient anti-β2GPI auto-antibodies with a β2GPI series in solution on immobilized plasma β2GPI
# T3 construct: Polyclonal mixture; also called patient antibodies
# Method: C. […] Eluted fractions are analyzed on Western blot after SDS-PA electrophoresis. […] Anti-β₂GPI auto-antibodies were purified from plasma of patients with the autoimmune disease Anti-phospholipid syndrome.
# T2 sequence (P00750 36-562 limits assumed): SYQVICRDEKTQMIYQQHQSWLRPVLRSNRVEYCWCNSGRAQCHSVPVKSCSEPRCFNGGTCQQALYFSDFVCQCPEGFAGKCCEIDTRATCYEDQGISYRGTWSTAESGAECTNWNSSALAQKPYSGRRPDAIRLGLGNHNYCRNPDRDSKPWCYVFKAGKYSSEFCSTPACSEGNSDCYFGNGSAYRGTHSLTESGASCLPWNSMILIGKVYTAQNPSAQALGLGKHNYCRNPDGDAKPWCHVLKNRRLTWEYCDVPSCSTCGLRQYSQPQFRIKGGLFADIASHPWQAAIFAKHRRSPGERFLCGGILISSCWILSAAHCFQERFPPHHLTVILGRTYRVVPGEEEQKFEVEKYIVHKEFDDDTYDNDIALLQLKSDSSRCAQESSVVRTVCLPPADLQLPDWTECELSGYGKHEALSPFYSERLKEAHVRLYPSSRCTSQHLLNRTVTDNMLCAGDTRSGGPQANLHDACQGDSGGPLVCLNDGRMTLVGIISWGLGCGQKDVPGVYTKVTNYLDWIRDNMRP
binding result [1],Kd [2] [nM],Kd [3] [nM],IC50 (read off the curve) [4] [µg/mL],Binder
binds,–,–,–,KRLEVDIDIGIRS (Preparation with cross-β structure; also called amyloid FP13 K157G) [amyloid fibrin peptide FP13 K157G]
–,51,20,~5,"recombinant human β2-glycoprotein I (other, UniProt P02749 20-345, looked up, also called recombinant β2GPI; rβ2GPI) GRTCPKPDDLPFSTVVPLKTFYEPGEEITYSCKPGYVSRGGMRKFICPLTGLWPINTLKCTPRVCPFAGILENGAVRYTTFEYPNTISFSCNTGFYLNGADSAKCTEEGKWSPELPVCAPIICPPPSIPTFATLRVYKPSAGNNSLYRDTAVFECLPQHAMFGNDTITCTTHGNWTKLPECREVKCPFPSRPDNGFVNYPAKPTLYYKDKATFGCHDGYSLDGPEEIECTKLGNWSAMPSCKASCKVPVKKATVVYQGERVKIQEKFKNGMLHGDKVSFFCKNKEKKCSYTEDAQCIDGTIEVPKCFKEHSSLAFWKTDASDVKPC"
